Source: publication doi:10.1101/2020.04.23.053322
Like-named read-outs stand apart in the source and are kept apart here.

Experiments:
[1] = biological target: ATF6-CFP (human ATF6 fused to mCerulean on the C-terminal side) (human) (UniProt P18850); assay: FRET or BRET
[2] = biological target: ATF6-CFP (human ATF6 fused to mCerulean on the C-terminal side) (human) (UniProt P18850); assay: FRET or BRET; remark: listed apart in the source

Chain of UniProt P18850 (P18850 whole entry, the tested form may be a part): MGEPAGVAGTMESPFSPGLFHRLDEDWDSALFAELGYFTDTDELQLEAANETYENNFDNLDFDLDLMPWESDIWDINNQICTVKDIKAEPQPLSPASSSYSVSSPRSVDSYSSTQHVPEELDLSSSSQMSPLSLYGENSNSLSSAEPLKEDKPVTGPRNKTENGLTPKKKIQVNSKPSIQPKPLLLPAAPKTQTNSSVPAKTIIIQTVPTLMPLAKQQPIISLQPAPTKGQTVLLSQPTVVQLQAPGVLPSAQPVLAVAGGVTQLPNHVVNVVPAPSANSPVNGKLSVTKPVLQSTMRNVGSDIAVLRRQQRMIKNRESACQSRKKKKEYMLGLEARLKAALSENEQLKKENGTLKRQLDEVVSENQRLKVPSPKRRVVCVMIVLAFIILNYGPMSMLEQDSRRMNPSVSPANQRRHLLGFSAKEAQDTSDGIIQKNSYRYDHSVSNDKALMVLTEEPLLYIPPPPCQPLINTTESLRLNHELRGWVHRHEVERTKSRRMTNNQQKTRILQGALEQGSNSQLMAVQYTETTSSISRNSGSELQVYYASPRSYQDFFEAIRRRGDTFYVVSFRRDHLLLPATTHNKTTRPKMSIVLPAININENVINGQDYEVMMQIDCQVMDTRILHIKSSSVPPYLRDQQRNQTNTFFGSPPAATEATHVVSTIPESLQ

FRET efficiency [1]: 11.7%
FRET efficiency [2]: 11.4%
Substance: mVenus-tagged sorcin (YFP-SRI) (from UniProt P30626 1-198) (natural protein)
